# Reference: publication PMC4366279 (PLoS ONE, 2015)
# Substitutions are numbered along the chain they refer to.
# B1: KREPA2 (natural protein)
# chain: MYRRFFRSAAVKHLGTTSAQCLMRATKYPCGAMCRNASSCHPQTLGYQQRFQSTTDKKFHCSVCKKPFRLEMAAKLHLQQAHGGDGSVEAGPGPGVEASSVNVVSTPVPSPISPVERTFVDEEERRPRRMRPTPKPLHQPDRDIPAAAMEEMLGVWDKIGLNRLEGNFVHSTMVMKVFAAPPDVSEIPLYEHVAPEGENPFDSLDHMTTGTVDATYVGHDAFAEVDLVDPFVAAPDQTLNPFRAGKVRNPFTRISPTQREVVKPLQPPQPKEEPLKAPVTPFGQLPMFGQTREPSASFAAAAVSVQAAANPNEVSSPFAAAVSSSPFVGQVASPFAPAQDVAGSPFEASPCAASSPFVTAGGQETSPFAAPSTPASFGQGSLFPPMGTGAPGFTAITETEQRQQELEHGCPTCGKKFSTFEGAAMHSKSKHGIVLESKKVKDRLNRKGVPDLPAYVPSPVDLSSTSPFGTRSAIGASWAETELIPHAQCVSNITIVGRVLDVSQASENVSHVTVFVEGERSGEEETLTLCCFGEVSQKIRGTLKRNATIFASGTLRLHPVYEASNNKYYVSPVVHVSMPTGTLAVIT
# modifications: [35S]-methionine labelled
# notes: KREPA2 of T. brucei, the KREPA2 open reading frame, expressed untagged (63 kDa); source: in vitro translated (TNT reticulocyte lysate coupled transcription and translation system, Promega)
# Columns and labels:
# [1] = molecular target: T1, T. brucei RNA Editing Ligase 1 (TbREL1), full length wild type (Trypanosoma brucei, UniProt P86926 45-469, [35S]-methionine labelled); experiment: cell-based or functional assay
# T1 sequence: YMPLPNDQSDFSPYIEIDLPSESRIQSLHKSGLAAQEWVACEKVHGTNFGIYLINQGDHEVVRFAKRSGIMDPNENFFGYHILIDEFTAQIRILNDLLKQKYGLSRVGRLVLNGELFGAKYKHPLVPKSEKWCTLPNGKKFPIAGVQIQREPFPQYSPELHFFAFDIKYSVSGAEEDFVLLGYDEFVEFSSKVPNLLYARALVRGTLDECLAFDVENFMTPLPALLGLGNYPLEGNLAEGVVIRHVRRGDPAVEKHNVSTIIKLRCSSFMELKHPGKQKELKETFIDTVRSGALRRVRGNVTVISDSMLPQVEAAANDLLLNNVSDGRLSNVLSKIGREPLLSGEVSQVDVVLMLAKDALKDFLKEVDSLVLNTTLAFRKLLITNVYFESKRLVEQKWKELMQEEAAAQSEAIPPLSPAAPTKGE
# [2] = molecular target: T2, TbREL1 F206A (Trypanosoma brucei, UniProt P86926 45-469, F206A, [35S]-methionine labelled); experiment: pull-down; His6-TbREL1 TNT mixture mixed with an equal volume of untagged KREPA2 TNT mixture, captured on magnetic His-tag isolation beads (Dynabeads); binding buffer 50 mM NaPO4 pH 8.0, 300 mM NaCl, 0.01% Tween 20; 20-30 min at 4°C; three washes; [35S]-methionine-labelled proteins on 10% SDS-PAGE, PhosphorImager; KREPA2-only control for background; details: partners not purified
# T2 construct: Site-directed mutagenesis of TbREL1-pET30a; source: in vitro translated (TNT reticulocyte lysate coupled transcription and translation system, Promega); not shown: His6, N-terminal, kept
# T2 sequence: T1 sequence with F162A
# [3] = molecular target: T3, TbREL1 K441A (Trypanosoma brucei, UniProt P86926 45-469, K441A, [35S]-methionine labelled); experiment: as above; details: partners not purified
# T3 construct: Site-directed mutagenesis of TbREL1-pET30a; source: in vitro translated (TNT reticulocyte lysate coupled transcription and translation system, Promega); not shown: His6, N-terminal, kept
# T3 sequence: T1 sequence with K397A
# [4] = molecular target: T4, TbREL1 E444A (Trypanosoma brucei, UniProt P86926 45-469, E444A, [35S]-methionine labelled); experiment: as above; details: partners not purified
# T4 construct: Site-directed mutagenesis of TbREL1-pET30a; source: in vitro translated (TNT reticulocyte lysate coupled transcription and translation system, Promega); not shown: His6, N-terminal, kept
# T4 sequence: T1 sequence with E400A
binder,measurement,setting,value
B1,"adenylylation activity of TbREL1, enhancement in the presence of equimolar KREPA2",[1],6.7 fold
same,"ligation activity of TbREL1 (pre-cleaved RNA ligation assay), enhancement in the presence of equimolar KREPA2",[1],3.6 fold
same,relative pulldown (% of the KREPA2 pulled down by TbREL1 WT),[2],< 50%
same,relative pulldown (% of the KREPA2 pulled down by TbREL1 WT),[3],< 50%
same,relative pulldown (% of the KREPA2 pulled down by TbREL1 WT),[4],< 50%
